Data on 16 molecules can be found in PMC8116589, “Distinguishing Signal From Noise in Immunopeptidome Studies of Limiting-Abundance Biological Samples: Peptides Presented by I-A^b in C57BL/6 Mouse Thymus” (Frontiers in Immunology, 2021).

Where no end group is shown, it is not given here.

The assay addresses soluble I-A^b-3R, mouse MHC-II protein (recombinant I-A^b) (mouse). In words: fluorescence polarisation; competition: 100 nM I-A^b-3R (3R cut off by thrombin, 1 U/ug), 25 nM Alexa488-labeled CLIP probe peptide, test peptide from 100 uM in 5-fold dilutions, 0.5 uM HLA-DM, read after 72 h at 37 C; 100 mM sodium citrate, 50 mM NaCl, 0.1% octyl glucoside, 5 mM EDTA, 1 mM DTT; three independent experiments, mean and SD.

As usually defined, the IC50 is the concentration that gives 50% inhibition. Take IYEAYRQGQANLEAL [… (Marginal zone B- and B1-cell-specific protein peptide)]: the IC50 stood at 1370 nM. The figure for APTSALGPKASPAPS [… (CCR4-NOT transcription complex subunit 3 peptide)] is 2300 nM; for AGTGVDNVDLEAATR (not fully specified) [… (D-3-phosphoglycerate dehydrogenase peptide)] it is 57500 nM. In the case of AQRAGYKAAIVHNVDS [… (E3 ubiquitin-protein ligase RNF13 peptide)], the IC50 was 2420 nM.

Turning to GGSTDYNAAFISRLS [… (Protein Ighv2-2 peptide)], the IC50 is 4960 nM. In the case of KDITTVNFPPALASGGG [… (Protein Igha peptide)], the half-inhibitory concentration (IC50) was determined as 970 nM. Take QVLSWSSPVGSRTLA [… (Protein Siglecg peptide)]: the IC50 amounted to 152 nM. The figure for GPGSREAASPVAITVQE [… (Fc receptor-like A peptide)] is 466 nM. Regarding AVLLPKKSSATVGPKAPAVGK [… (Histone H2AX peptide)], the IC50 came out at 13600 nM.

With HLNTYDGSHTLRVSQS [… (T-lymphocyte surface antigen Ly-9 peptide)], the IC50 is 1360 nM. With LNLPTGIPIVYEL (not fully specified) [… (Phosphoglycerate mutase 2 peptide)] the figure was 54400 nM; with NDWTVDHPQTLFAWEG [… (B-cell receptor CD22 peptide)], 445 nM. With AGKLQDQGPDVLLAKVS [… (Inter alpha-trypsin inhibitor, heavy chain 4 peptide)] the figure was 378 nM; with LLPKYSFAKPSIVSDK [… (Complement receptor type 2 peptide)], 179 nM; with YSMGMHTYQVG [… (Cathepsin S peptide)], 74100 nM. Turning to IRRYGVSQPDAVAAWK (not fully specified) [… (Alpha-N-acetylglucosaminidase peptide)], the IC50 was determined as 250 nM.
